Values of other authors, collected in publication PMC5031454.
pKd: −log10 of the molar value.

Target: Dscam1 Ig1-4 (Drosophila melanogaster) (UniProt Q0E9H9)
UniProt Q0E9H9, sequence (Q0E9H9 39-421): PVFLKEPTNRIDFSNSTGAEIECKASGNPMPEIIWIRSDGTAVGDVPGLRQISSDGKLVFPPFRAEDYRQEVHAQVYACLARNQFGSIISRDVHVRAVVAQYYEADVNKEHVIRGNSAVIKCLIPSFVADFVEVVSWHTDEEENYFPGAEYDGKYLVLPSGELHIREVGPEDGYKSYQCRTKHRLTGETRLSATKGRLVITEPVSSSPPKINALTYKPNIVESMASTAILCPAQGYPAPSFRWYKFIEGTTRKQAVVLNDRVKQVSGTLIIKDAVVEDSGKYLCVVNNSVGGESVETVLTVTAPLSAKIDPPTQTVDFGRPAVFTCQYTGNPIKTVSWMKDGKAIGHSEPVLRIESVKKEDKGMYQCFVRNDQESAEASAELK

pKd: 7.66
Substance: Slit-N N-terminal fragment (from UniProt P24014)
